The results in this text go back to paper PMC8696166.

This assay has as its target His-GD1 (N-terminally His-tagged GD1 domain of EngA) (Synechococcus elongatus PCC7942). As to the kind of experiment: pull-down; His-EngA or His-GD1 (6 μg) bound to DynaBeads-Histag, 6 μg PipX–ST added; 50 mM Tris-HCl pH 7, 0.1 M KCl, 10% glycerol, 10 mM MgCl2, 20 mM imidazole, 0.1% Triton-X100, with or without 1 mM GDP, room temperature; elution with 500 mM imidazole; Western blot with antisera against PipX and EngA. A general note: Immunoblotting shows a protein as a band on a membrane.

Chain of His-GD1 (N-terminally His-tagged GD1 domain of EngA) (Synechococcus elongatus PCC7942) (Q31KP9 1-169): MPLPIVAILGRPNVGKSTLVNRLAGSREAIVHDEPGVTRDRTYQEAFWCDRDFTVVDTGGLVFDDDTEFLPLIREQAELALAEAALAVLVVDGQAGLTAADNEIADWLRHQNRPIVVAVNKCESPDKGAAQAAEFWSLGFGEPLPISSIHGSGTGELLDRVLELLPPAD

B1: PipX–ST (C-terminally Strep-tagged PipX) (natural protein)
chain: MASENYLNHPTFGLLYQICSFGDSKELFATLYAQRLFFLVAFDARGTRFEPIGRNEARMLVDNRLRQLRRDASLQEYNQLQQVFKQTFL
For B1, the retention of PipX (PipX/GD1 band intensity ratio) relative to the PipX/EngA ratio with His-EngA is 10 fold.
